For twelve substances, EC50 of cAMP formation (AlphaScreen cAMP assay), IC50 and ratio [(IC50/nM) high HSA]/[(IC50/nM) low HSA] results are on record in patent US20120329711A1, “GLP-1 RECEPTOR AGONIST COMPOUNDS WITH A MODIFIED N-TERMINUS” (Nordisk A/S, priority 2009, published 2012).

Read-outs that look alike come from different tables or passages of the source. Some results are limits rather than exact numbers.

The target in test [1] is T1, human GLP-1 receptor (Homo sapiens, UniProt P43220).
Test [2] concerns the target T1, human GLP-1 receptor. The source holds these as a separate data set.
Test [3] addresses T1, human GLP-1 receptor. Briefly: SPA displacement of [^125I]-GLP-1(7-36)NH2 from BHK membranes with the human GLP-1 receptor, 0.005% HSA (low albumin).
Test [4] addresses Human Serum Albumin (human) (UniProt P02768). Kind of test: shift of the GLP-1 receptor IC50 (SPA displacement of ^125I-GLP-1) between 2.0% and 0.005% HSA, which the filing takes as an indication of albumin binding.
Test [5] addresses T1, human GLP-1 receptor. Kind of test: SPA displacement of [^125I]-GLP-1(7-36)NH2 from BHK membranes with the human GLP-1 receptor, 2.0% HSA (high albumin).

As to “N^3-{2-[2-(1H-Imidazol-4-yl)-methylcarbamoyl]-2-methyl-propionyl}-[2-(2-{2-[2-(2-{2-[(S)-4-Carboxy-4-(17-carboxyheptadecanoylamino)-butyrylamino]ethoxy}ethoxy)-acetylamino]ethoxy}-ethoxy)acetyl][Arg^17,Arg^20,Arg^33,Lys^38]GLP-1A(3-37)-peptide”, the EC50 of cAMP formation (AlphaScreen cAMP assay) with human GLP-1 receptor [1] was under 2.1 nM.
A word on the IC50: it is the midpoint of a concentration-inhibition curve. A higher IC50 goes with lower potency. As to “N^9-(5-oxo-5-phenylpentanoyl), N^ε26-[2-[2-[2-[[2-[2-[2-[[(4S)-4-carboxy-4-(17-carboxyheptadecanoylamino)butanoyl]amino]ethoxy]ethoxy]acetyl]amino]ethoxy]ethoxy]acetyl]-[Arg^34]-GLP-1-(9-37)-peptide”, in the test with human GLP-1 receptor [2], the EC50 of cAMP formation (AlphaScreen cAMP assay) was over 8 nM. In the test with human GLP-1 receptor [3], this substance had an IC50 of over 40 nM. In addition, the ratio [(IC50/nM) high HSA]/[(IC50/nM) low HSA] in test [4] is over 300.
In turn, “N^9-[2,2-dimethyl-3-oxo-3-(pyridin-2-ylmethylamino)propanoyl], N^ε26-[2-[2-[2-[[2-[2-[2-[[(4S)-4-carboxy-4-[10-(4-carboxyphenoxy)decanoylamino]butanoyl]amino]ethoxy]ethoxy]acetyl]amino]ethoxy]ethoxy]acetyl], N^ε37-[2-[2-[2-[[2-[2-[2-[[(4S)-4-carboxy-4-[10-(4-carboxyphenoxy)decanoylamino]butanoyl]amino]ethoxy]ethoxy]acetyl]amino]ethoxy]ethoxy]acetyl]-[Arg^34,Lys^3]-GLP-1-(9-37)-peptide” showed an EC50 of cAMP formation (AlphaScreen cAMP assay) in the test with human GLP-1 receptor [1] of under 2.1 nM. Further, the IC50 in the test with human GLP-1 receptor [5] is under 900 nM; with human GLP-1 receptor [3], under 40 nM. In addition, the ratio [(IC50/nM) high HSA]/[(IC50/nM) low HSA] in test [4] is over 10.
The corresponding values for “N^9-[-{2-[2-(1H-Imidazol-4-yl)-ethylcarbamoyl]-2-methyl-propionyl}-N^ε18-[2-(2-[2-(2-[2-(2-((S)-3-[1-(19-Carboxy-nonadecanoyl)-piperidine-4-carboxyamino]-3-carboxypropionylamino)ethoxy)ethoxy]acetylamino)ethoxy]ethoxy)acetyl][Lys^18,Glu^22, Gln^34]GLP-1(9-37)-peptide” are under 2.1 nM, under 900 nM, under 40 nM and over 10.
“N^9-{2-[2-(1H-Imidazol-4-yl)-ethylcarbamoyl]-2-methyl-propionyl}-N^ε26-[2-(2-{2-[2-(2-{2-[(S)-4-Carboxy-4-(17-carboxyheptadecanoylamino)butyrylamino]ethoxy}ethoxy)acetylamino]ethoxy}ethoxy)acetyl][His^31,Gln^34]GLP-1(9-37)-peptide” returned an EC50 of cAMP formation (AlphaScreen cAMP assay) in the test with human GLP-1 receptor [1] of under 2.1 nM. The IC50 is under 900 nM in the test with human GLP-1 receptor [5] and under 40 nM with human GLP-1 receptor [3]. In test [4], the ratio [(IC50/nM) high HSA]/[(IC50/nM) low HSA] is over 10.
The corresponding values for “N^9-{2-[2-(1H-Imidazol-4-yl)-ethylcarbamoyl]-2-methyl-propionyl}-N^ε26-{2-[2-(2-{2-[2-(2-{(S)-4-Carboxy-4-[10-(4-carboxy-phenoxy)-decanoylamino]-butyrylamino}-ethoxy)-ethoxy]-acetylamino}-ethoxy)-ethoxy]-acetyl}, N^ε37-{2-[2-(2-{2-[2-(2-{(S)-4-Carboxy-4-[10-(4-carboxy-phenoxy)-decanoylamino]-butyrylamino}-ethoxy)-ethoxy]-acetylamino}-ethoxy)-ethoxy]-acetyl}[Arg^34,Lys^37]GLP-1(9-37)-peptide” are under 2.1 nM, under 900 nM, under 40 nM and over 10.
Taken in the same sequence, the figures for “N^9-{2-[2-(1H-Imidazol-4-yl)-ethylcarbamoyl]-2-methyl-propionyl}-N^ε26-{2-[2-(2-{2-[2-(2-{(S)-4-[4-(4-tert-Butyl-phenyl)-butyrylamino]-4-carboxy-butyrylamino}-ethoxy)-ethoxy]-acetylamino}-ethoxy)-ethoxy]-acetyl}, N^ε37-{2-[2-(2-{2-[2-(2-{(S)-4-[4-(4-tert-Butyl-phenyl)-butyrylamino]-4-carboxy-butyrylamino}-ethoxy)-ethoxy]-acetylamino}-ethoxy)-ethoxy]-acetyl}[Arg^34, Lys^37]GLP-1(9-37)-peptide” were under 2.1 nM, under 900 nM, under 40 nM and over 10.
Regarding “N^9-{2-[2-(1H-Imidazol-4-yl)-ethylcarbamoyl]-2-methyl-propionyl}-N^ε36-(2-{2-[2-(17-carboxyheptadecanoylamino)ethoxy]ethoxy}acetyl) (Glu^30,Lys^36)GLP-1(9-37) Glu^38-peptide amide”, in the test with human GLP-1 receptor [1], the EC50 of cAMP formation (AlphaScreen cAMP assay) was under 2.1 nM. Besides, the IC50 is under 900 nM with human GLP-1 receptor [5] and under 40 nM with human GLP-1 receptor [3]. In test [4], the ratio [(IC50/nM) high HSA]/[(IC50/nM) low HSA] is over 10.
“N^9-{2-[2-(1H-Imidazol-4-yl)-ethylcarbamoyl]-2-methyl-propionyl}N^ε26-[2-(2-{2-[2-(2-{2-[(S)-4-Carboxy-4-(17-carboxyheptadecanoylamino)butyrylamino]ethoxy}ethoxy)acetylamino]ethoxy}ethoxy)acetyl][Arg^34]GLP-1(9-37)-peptide” came in with an EC50 of cAMP formation (AlphaScreen cAMP assay) with human GLP-1 receptor [1] of under 2.1 nM. In addition, the figures for the IC50 with human GLP-1 receptor [5] and with human GLP-1 receptor [3] were under 900 nM and under 40 nM, respectively. In addition, the ratio [(IC50/nM) high HSA]/[(IC50/nM) low HSA] in test [4] was over 10.
The corresponding values for “N^9-{2-[2-(1H-Imidazol-4-yl)-ethylcarbamoyl]-2-methyl-propionyl}N^ε26-{2-[2-(2-{2-[2-(2-{(S)-4-Carboxy-4-[10-(4-carboxy-phenoxy)-decanoylamino]-butyrylamino}-ethoxy)-ethoxy]-acetylamino}-ethoxy)-ethoxy]-acetyl}, N^ε37-{2-[2-(2-{2-[2-(2-{(S)-4-Carboxy-4-[10-(4-carboxy-phenoxy)-decanoylamino]-butyrylamino}-ethoxy)-ethoxy]-acetylamino}-ethoxy)-ethoxy]-acetyl}[Arg^34,Lys^37]GLP-1(9-37)Glu^38-peptide” are under 2.1 nM, under 900 nM, under 40 nM and over 10.
The corresponding values for “N^9-{2-[2-(1H-Imidazol-4-yl)-propylcarbamoyl]-2-methyl-propionyl}-N^ε36-(2-{2-[2-(17-carboxyheptadecanoylamino)ethoxy]ethoxy}acetyl) [Glu^30,Lys^36]GLP-1(9-37)Glu^38-peptide amide” are under 2.1 nM, under 900 nM, under 40 nM and over 10.
Taken in the same sequence, the figures for “N^9-{2-[2-(1H-Imidazol-4-yl)methylcarbamoyl]-2-methyl-propionyl}-N^ε36-(2-{2-[2-(17-carboxyheptadecanoylamino)ethoxy}ethoxy]acetyl)[Glu^30,Lys^36]GLP-1(9-37) Glu^38-peptide amide” were under 2.1 nM, under 900 nM, under 40 nM and over 10.
